What all share (conditions): protein: recombinant; blunt
Data set [1] addresses T1, Sc_Rpn4p (Saccharomyces cerevisiae S288C, UniProt Q03465 2-531).
T1 sequence: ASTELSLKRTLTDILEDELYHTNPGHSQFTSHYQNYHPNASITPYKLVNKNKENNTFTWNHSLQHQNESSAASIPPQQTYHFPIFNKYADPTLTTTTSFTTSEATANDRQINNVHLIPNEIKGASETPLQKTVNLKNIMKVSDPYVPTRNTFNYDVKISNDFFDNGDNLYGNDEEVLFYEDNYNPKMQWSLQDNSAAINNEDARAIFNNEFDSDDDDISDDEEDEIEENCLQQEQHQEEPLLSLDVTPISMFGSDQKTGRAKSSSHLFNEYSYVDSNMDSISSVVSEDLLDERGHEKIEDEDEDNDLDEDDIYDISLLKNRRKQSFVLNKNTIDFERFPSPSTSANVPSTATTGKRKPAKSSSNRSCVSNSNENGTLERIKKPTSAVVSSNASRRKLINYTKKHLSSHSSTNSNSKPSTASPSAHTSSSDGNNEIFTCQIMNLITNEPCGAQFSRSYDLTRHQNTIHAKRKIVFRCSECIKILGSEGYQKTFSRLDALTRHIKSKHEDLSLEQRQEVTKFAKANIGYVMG
In words: competition; SPR; 1x and 5x competitor; Biacore 3000 SA chip; HBS: 10 mM HEPES pH 7.4, 150 mM NaCl, 3 mM EDTA, 0.005% P20; room temperature; 10 ul/min, 90 s injection; competitors preincubated 50 min. A general note: Surface plasmon resonance follows binding to a sensor surface in real time, without labels.

The target of data set [2] is T1, Sc_Rpn4p. In words: competition; SPR; 1x and 5x competitor; best competitor on Sequences A, B, C; Biacore 3000 SA chip; HBS: 10 mM HEPES pH 7.4, 150 mM NaCl, 3 mM EDTA, 0.005% P20; room temperature; 10 ul/min, 90 s injection; competitors preincubated 50 min.
Data set [3] addresses T1, Sc_Rpn4p. In words: SPR; 50 nM protein; Biacore 3000 SA chip; HBS: 10 mM HEPES pH 7.4, 150 mM NaCl, 3 mM EDTA, 0.005% P20; room temperature; 10 ul/min, 90 s injection; competitors preincubated 50 min.
The target of data set [4] is T1, Sc_Rpn4p. In words: SPR; Biacore 3000 SA chip; HBS: 10 mM HEPES pH 7.4, 150 mM NaCl, 3 mM EDTA, 0.005% P20; room temperature; 10 ul/min, 90 s injection; competitors preincubated 50 min.

B1: Sequence G competitor (dsDNA)
DNA 1: CCAGATAATCCTGCATTTGGCGGAAGAAAA
DNA 2: TTTTCTTCCGCCAAATGCAGGATTATCTGG
With B1, in data set [1], the binding result was “no binding”.

B2: Sequence D competitor (dsDNA)
DNA 1: CCAGATAATCGGTGGCAAAACGGAAGAAAA
DNA 2: TTTTCTTCCGTTTTGCCACCGATTATCTGG
Regarding B2, in data set [2], the binding result was “binds”.

B3: Sequence A (dsDNA)
DNA 1: GCGTGCCAGATAATCGGTGGCAAAACGGAAGAAAAAGTGA
DNA 2: TCACTTTTTCTTCCGTTTTGCCACCGATTATCTGGCACGC
On to B3, for which, in data set [3], the binding result was “binds”.

B4: Sequence I (dsDNA)
DNA 1: ACTTGTTCCCGCTCGCTGGAGCTCCTCCAACGACACGGGC
DNA 2: GCCCGTGTCGTTGGAGGAGCTCCAGCGAGCGGGAACAAGT
As to B4, the binding result in data set [4] was “no binding”.

These data come from PMC526180, “Conservation and Evolution of Cis-Regulatory Systems in Ascomycete Fungi”.
